Target: catalytic subunit of the cellular DNA-dependent protein kinase (human) (UniProt P78527)
Test: cell-based or functional assay

adenovirus E4 34k protein (product of early region 4 ORF6), expressed from plasmid OE6.5 as a fusion with a c-myc epitope, sequence (P03239 whole entry, the tested form may be a part): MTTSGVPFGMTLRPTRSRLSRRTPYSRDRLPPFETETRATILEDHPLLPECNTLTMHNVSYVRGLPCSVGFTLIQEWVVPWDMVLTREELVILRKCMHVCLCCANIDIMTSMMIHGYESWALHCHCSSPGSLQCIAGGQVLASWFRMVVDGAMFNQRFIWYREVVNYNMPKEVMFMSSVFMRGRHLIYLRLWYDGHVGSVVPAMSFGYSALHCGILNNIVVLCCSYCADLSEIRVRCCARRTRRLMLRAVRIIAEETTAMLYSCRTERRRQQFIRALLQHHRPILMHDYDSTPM
UniProt P78527, sequence (P78527 whole entry): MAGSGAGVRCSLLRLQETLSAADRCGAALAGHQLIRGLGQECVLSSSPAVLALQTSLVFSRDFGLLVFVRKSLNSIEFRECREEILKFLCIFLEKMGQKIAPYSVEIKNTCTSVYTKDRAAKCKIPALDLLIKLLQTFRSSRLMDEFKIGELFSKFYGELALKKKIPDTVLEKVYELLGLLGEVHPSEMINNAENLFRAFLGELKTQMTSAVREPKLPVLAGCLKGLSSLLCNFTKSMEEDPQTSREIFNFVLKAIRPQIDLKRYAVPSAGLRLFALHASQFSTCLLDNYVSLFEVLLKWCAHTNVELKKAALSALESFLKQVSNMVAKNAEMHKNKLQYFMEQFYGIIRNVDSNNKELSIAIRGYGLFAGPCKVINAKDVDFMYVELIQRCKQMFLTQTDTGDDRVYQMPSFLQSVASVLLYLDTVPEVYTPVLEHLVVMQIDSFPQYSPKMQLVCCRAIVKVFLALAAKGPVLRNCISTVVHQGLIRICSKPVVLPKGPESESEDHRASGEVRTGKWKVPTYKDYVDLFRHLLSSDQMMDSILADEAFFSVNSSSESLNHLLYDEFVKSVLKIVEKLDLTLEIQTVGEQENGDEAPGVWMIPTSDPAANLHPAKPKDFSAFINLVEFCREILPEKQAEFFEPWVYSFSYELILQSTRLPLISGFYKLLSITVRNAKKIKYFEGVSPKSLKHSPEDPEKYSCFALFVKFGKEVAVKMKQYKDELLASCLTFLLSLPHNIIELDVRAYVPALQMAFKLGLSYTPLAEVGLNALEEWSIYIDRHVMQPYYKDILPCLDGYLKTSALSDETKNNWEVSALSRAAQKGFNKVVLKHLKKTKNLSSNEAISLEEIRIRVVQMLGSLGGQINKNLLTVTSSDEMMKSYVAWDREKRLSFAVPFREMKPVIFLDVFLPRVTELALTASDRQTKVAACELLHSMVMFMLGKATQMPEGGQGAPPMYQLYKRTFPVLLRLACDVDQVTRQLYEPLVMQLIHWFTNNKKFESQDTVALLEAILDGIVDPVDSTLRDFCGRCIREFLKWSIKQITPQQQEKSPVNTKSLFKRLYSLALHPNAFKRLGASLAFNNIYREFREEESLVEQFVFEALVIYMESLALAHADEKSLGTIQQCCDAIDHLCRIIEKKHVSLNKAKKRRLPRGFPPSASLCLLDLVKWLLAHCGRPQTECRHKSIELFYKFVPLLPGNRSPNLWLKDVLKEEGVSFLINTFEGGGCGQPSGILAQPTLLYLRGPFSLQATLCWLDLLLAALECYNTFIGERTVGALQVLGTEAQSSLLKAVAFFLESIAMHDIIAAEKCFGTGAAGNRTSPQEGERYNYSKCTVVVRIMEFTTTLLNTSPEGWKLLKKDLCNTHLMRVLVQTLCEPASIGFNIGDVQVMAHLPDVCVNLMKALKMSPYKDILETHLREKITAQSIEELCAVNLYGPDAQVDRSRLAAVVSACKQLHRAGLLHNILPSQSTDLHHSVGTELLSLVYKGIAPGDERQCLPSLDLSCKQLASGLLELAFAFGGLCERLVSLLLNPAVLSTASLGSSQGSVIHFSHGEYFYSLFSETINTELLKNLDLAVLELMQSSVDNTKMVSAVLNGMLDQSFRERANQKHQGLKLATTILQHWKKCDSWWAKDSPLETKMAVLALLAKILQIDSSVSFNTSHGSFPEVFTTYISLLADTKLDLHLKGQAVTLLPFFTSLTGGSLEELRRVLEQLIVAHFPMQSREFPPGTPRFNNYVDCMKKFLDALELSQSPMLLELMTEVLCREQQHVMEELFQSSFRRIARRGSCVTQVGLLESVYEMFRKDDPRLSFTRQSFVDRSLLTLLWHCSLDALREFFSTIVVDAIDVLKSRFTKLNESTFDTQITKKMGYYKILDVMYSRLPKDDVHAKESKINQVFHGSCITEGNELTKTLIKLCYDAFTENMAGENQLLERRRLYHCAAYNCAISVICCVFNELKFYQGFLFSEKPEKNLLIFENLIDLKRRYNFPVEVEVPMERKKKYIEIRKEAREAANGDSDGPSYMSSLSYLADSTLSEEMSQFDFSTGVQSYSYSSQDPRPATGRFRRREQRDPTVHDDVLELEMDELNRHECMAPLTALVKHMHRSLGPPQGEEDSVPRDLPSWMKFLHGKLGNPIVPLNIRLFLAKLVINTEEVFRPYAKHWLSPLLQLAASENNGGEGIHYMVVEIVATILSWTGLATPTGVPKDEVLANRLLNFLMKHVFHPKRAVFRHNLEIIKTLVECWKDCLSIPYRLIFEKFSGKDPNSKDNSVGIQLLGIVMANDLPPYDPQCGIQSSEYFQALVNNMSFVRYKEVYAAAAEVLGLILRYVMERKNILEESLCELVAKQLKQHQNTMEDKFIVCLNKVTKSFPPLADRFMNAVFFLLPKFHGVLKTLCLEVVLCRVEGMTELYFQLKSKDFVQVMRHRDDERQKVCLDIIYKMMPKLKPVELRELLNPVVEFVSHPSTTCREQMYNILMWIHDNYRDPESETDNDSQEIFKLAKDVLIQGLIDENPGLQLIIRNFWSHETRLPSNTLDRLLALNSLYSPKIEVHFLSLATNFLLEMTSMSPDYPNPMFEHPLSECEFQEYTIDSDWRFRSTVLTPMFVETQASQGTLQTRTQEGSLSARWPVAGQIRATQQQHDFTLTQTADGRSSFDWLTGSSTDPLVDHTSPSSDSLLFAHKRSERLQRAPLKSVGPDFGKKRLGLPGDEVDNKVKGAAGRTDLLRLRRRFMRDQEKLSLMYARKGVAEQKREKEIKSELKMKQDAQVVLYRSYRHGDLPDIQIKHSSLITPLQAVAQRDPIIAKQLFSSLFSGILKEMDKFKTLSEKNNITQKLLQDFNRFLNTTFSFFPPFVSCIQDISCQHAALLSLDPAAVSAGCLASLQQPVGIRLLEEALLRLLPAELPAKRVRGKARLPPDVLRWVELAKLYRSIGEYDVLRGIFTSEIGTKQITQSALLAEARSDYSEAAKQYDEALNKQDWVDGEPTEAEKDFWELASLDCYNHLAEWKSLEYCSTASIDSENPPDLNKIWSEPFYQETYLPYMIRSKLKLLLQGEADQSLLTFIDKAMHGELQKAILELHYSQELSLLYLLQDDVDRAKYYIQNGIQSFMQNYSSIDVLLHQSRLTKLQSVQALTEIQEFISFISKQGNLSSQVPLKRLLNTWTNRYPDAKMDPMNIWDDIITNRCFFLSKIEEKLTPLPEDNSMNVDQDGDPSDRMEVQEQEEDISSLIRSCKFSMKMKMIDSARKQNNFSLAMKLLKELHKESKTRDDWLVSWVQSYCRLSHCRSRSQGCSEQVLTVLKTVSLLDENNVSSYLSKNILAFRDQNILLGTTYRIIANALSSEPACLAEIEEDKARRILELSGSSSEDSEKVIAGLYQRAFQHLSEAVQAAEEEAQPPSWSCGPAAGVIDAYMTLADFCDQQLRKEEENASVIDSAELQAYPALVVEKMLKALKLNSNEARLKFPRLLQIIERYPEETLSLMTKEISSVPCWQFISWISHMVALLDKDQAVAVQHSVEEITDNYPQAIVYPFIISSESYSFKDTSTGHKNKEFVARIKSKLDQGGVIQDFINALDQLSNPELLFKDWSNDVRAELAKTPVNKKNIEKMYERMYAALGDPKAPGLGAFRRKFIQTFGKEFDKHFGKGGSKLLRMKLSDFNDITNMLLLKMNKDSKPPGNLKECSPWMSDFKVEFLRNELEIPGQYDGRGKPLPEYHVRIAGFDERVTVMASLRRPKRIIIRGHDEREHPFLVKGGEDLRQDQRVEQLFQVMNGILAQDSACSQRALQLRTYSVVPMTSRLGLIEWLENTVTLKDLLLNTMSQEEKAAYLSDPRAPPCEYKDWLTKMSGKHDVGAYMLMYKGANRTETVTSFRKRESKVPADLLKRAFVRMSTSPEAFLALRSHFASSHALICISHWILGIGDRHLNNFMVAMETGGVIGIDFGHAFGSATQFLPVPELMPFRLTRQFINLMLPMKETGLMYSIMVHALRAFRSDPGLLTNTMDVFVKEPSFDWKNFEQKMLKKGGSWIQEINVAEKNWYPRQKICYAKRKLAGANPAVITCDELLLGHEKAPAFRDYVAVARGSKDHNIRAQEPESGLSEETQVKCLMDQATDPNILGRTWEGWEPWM

adenovirus E4 34k protein (product of early region 4 ORF6), expressed from plasmid OE6.5 as a fusion with a c-myc epitope
V(D)J recombination frequency (recombinant formation of substrate plasmid pJH200 in transfected 293 cells): 5 fold

From US7022496
